Earlier results in article PMC10502159.

How the values were obtained:
[1] = molecular target: pCTS-L (procathepsin L) (Homo sapiens) (UniProt P07711); assay: OpenSPR
[2] = molecular target: TLR4 1-631 (Homo sapiens) (UniProt O00206); assay: SPR
TLR4 (Homo sapiens) = TLR4 (Homo sapiens) (UniProt O00206); assay: OpenSPR
EGFR ECD (Homo sapiens) [3] = molecular target: EGFR ECD (Homo sapiens) (UniProt P00533); assay: SPR (Biacore)
EGFR ECD (Homo sapiens) [4] = molecular target: EGFR ECD (Homo sapiens) (UniProt P00533); assay: SPR (OpenSPR)

dermcidin, sequence (P81605 20-110): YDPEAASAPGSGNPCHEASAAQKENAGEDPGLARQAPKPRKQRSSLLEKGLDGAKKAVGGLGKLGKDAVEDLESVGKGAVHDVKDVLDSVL
TLR4 1-631 (Homo sapiens), sequence (O00206 1-631): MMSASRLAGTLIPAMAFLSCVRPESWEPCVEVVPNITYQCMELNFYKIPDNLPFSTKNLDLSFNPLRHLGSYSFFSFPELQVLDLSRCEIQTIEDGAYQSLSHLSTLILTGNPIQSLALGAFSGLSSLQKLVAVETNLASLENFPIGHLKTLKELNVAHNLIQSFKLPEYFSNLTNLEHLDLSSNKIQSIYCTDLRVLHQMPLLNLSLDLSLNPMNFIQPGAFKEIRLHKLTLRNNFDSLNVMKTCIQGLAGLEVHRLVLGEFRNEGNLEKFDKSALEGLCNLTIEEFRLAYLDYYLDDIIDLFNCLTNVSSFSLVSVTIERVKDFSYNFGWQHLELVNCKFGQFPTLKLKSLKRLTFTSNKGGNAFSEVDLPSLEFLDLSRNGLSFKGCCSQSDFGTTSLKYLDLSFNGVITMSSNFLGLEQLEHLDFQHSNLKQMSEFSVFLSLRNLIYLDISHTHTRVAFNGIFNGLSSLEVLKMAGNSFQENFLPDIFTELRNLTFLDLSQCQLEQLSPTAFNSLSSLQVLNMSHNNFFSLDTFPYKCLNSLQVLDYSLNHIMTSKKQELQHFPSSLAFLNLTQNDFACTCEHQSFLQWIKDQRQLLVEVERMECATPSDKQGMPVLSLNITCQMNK
TLR4 (Homo sapiens), sequence (O00206 24-631): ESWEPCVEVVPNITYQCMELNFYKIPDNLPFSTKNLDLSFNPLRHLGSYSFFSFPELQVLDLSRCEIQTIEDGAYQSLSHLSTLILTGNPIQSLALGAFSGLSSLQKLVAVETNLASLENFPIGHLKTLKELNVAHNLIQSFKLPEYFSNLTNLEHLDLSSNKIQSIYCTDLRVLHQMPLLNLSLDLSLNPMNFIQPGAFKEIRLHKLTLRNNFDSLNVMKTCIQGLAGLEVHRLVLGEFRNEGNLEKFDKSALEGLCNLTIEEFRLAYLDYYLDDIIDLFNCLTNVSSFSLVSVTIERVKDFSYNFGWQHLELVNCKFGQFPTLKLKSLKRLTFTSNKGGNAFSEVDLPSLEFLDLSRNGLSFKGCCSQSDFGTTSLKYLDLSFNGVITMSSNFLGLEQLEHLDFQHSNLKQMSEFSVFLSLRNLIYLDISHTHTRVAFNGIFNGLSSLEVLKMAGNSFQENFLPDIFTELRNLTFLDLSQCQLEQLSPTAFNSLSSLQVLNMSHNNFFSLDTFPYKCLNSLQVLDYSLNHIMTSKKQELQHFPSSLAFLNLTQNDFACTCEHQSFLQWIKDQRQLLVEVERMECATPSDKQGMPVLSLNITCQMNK
TLR4, sequence (O00206 24-631): as above
procathepsin L (pCTS-L) 17-333, sequence (P07711 17-333): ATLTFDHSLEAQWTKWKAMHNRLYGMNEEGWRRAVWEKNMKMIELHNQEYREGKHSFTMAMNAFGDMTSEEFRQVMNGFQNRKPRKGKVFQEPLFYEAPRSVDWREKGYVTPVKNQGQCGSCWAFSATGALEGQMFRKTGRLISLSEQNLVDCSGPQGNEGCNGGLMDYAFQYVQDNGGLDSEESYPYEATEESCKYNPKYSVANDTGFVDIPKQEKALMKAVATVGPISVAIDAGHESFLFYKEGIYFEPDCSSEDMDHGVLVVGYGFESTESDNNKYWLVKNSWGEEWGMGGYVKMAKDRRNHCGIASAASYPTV
pCTS-L (procathepsin L), sequence (P07711 18-333): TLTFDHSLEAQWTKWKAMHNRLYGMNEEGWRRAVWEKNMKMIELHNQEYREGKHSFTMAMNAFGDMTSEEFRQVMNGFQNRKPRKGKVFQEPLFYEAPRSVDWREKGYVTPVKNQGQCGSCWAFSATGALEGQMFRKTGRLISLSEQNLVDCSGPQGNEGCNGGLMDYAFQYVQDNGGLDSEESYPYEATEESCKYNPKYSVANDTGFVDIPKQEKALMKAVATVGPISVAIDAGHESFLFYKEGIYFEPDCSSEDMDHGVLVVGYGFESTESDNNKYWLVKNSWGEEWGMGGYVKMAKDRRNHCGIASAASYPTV
pCTS-L (procathepsin L) (Homo sapiens), sequence (P07711 18-333): as above

In the case of TLR4 (from UniProt O00206), the Kd [1] is given as 64.6 nM.

In the case of “procathepsin L (pCTS-L) 17-333 (from UniProt P07711)”, the Kd [2] is given as 64.6 nM.

In the case of “pCTS-L (procathepsin L) (from UniProt P07711)”, the Kd (TLR4 (Homo sapiens)) is given as 20.2 nM.

In the case of dermcidin (from UniProt P81605), the Kd (EGFR ECD (Homo sapiens) [3]) is listed as 58.8 nM and the Kd (EGFR ECD (Homo sapiens) [4]) is listed as 58.1 nM.
